For assay [1], the target named is T1, µ opioid receptor of the guinea pig isolated ileum (guinea pig, UniProt P97266 1-98). The assay is described as follows: cell-based or functional assay.
In assay [2] the target is T2, human δ opioid receptor (human, UniProt P41143 1-372).
T2 construct: whole, on cells; membrane preparations of the transfected cells were used; also called hDOR; DOR
As to the kind of experiment: competition vs [3H]DPDPE, hDOR cell membranes.
T2 sequence (P41143 whole entry, stated change not applied): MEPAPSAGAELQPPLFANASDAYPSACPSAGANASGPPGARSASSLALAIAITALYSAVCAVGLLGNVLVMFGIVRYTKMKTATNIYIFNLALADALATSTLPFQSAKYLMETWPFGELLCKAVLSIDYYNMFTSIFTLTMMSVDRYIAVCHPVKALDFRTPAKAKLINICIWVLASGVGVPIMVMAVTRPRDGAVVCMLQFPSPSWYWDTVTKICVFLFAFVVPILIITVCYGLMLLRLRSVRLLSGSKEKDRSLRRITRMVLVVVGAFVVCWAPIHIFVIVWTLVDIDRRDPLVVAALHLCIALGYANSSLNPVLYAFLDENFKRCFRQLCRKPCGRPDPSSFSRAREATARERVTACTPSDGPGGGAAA

A further assay addresses T3, human NK1 receptor (human, UniProt P25103 1-407).
T3 construct: whole, on cells; membrane preparations of the transfected cells were used; also called hNK1; human neurokinin-1 receptor
The assay is described as follows: competition vs [3H]Substance P, hNK1 CHO cell membranes.

For assay [3], the target named is T1, µ opioid receptor of the guinea pig …. As to the kind of experiment: cell-based or functional assay. The source holds these as a separate data set.
Assay [4] concerns the target T4, human δ opioid receptor (human, UniProt P41143 1-372). The assay is described as follows: cell-based or functional assay.
T4 sequence (P41143 whole entry, stated change not applied): as above
Assay [5] addresses T5, rat µ opioid receptor (rat, UniProt P33535 1-398). As to the kind of experiment: cell-based or functional assay.
Assay [6] has as its target µ opioid receptor of the guinea pig isolated ileum (guinea pig). The assay is described as follows: cell-based or functional assay.
A further assay deals with guinea pig NK1 receptor (guinea pig, UniProt P30547 1-407). The assay is described as follows: cell-based or functional assay.
Chain of guinea pig NK1 receptor (P30547 whole entry): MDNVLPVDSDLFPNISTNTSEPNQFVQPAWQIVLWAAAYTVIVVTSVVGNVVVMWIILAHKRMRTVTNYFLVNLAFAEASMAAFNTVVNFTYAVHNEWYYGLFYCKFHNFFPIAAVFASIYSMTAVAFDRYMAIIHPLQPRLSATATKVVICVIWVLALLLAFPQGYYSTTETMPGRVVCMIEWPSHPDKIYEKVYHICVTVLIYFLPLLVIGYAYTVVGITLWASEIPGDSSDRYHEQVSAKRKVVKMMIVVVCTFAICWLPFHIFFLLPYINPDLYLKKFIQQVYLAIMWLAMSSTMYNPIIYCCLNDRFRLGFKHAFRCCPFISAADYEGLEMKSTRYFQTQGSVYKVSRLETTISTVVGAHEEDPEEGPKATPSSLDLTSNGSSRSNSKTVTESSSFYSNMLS
The target in assay [7] is T4, human δ opioid receptor. As to the kind of experiment: ratio of Ki at rMOR to Ki at hDOR.
In assay [8] the target is T5, rat µ opioid receptor. As to the kind of experiment: competition vs [3H]DAMGO, membranes of rMOR-transfected HN9.10 cells.
In assay [9] the target is T4, human δ opioid receptor. The assay is described as follows: competition vs [3H]DPDPE, membranes of hDOR-transfected HN9.10 cells.
The target in a further assay is T6, rat NK1 receptor (rat, UniProt P14600 1-407).
T6 construct: whole, on cells; Assayed as membrane preparations of transfected CHO cells; also called rNK1; rNK-1
T6 sequence (P14600 whole entry): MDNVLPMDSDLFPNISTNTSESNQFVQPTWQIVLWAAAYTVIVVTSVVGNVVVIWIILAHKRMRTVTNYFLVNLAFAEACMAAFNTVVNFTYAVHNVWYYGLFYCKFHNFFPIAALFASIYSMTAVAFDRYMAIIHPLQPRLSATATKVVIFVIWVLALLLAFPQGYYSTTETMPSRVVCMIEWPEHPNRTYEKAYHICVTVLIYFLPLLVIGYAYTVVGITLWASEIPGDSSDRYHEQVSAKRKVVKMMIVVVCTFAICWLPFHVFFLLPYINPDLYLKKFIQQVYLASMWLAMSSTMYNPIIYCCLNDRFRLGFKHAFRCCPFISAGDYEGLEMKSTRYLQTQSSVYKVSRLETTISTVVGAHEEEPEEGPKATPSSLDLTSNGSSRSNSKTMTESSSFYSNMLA
The assay is described as follows: competition vs [3H]substance P, membranes of rNK1-transfected CHO cells.

Square brackets hold non-standard residues; d marks the D form. Ends that are not written are not given here. * marks the point of attachment. O‑Bzl(CF3)2 = C-terminal bis(trifluoromethyl)benzyl ester; OBzl(3,5-(CF3)2) = FC(F)(F)c1cc(CO*)cc(C(F)(F)F)c1; Phe(4-F) = N[C@@H](Cc1ccc(F)cc1)C(=O)O

Usually Ki stands for a dissociation constant, usually derived from enzyme kinetics or from competition with a known ligand. One may read the IC50 as the midpoint of a concentration-inhibition curve. A lower IC50 goes with higher potency.

T1 sequence (P97266 whole entry): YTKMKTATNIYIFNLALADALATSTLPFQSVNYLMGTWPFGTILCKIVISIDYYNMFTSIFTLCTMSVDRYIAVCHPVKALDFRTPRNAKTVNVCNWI
T5 sequence (P33535 whole entry): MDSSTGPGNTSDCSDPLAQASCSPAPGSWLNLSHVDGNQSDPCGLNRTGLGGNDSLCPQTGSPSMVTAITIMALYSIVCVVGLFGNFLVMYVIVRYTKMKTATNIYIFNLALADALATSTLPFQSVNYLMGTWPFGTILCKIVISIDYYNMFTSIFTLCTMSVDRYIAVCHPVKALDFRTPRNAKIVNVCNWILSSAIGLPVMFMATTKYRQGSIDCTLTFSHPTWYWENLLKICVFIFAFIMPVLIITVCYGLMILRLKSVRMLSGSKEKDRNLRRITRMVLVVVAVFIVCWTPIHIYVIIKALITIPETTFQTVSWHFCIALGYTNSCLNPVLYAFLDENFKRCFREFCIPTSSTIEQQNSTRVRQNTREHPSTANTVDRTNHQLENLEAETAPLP
T3 sequence (P25103 whole entry): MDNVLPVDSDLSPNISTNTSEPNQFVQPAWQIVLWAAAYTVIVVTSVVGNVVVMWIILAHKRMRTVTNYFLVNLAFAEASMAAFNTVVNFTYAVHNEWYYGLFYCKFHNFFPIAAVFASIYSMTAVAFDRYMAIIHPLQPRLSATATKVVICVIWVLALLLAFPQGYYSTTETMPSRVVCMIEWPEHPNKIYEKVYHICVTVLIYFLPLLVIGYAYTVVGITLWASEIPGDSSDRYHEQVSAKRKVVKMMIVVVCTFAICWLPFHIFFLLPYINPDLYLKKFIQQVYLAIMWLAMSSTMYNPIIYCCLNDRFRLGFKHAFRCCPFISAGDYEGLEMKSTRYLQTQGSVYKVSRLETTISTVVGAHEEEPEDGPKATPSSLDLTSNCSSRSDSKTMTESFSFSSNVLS

As to Y[dA]G[Phe(4-F)]-{OBzl(3,5-(CF3)2)} [Tyr-D-Ala-Gly-pFPhe-O-3′,5′(CF3)2-Bzl (NP62)], in [1], the “GPI µ-agonist IC50” value came out at 208 nM.

B1: DmtDAlaGlyPheNleProLeuTrpNHBn-2,4-(OMe)2 (peptide)
peptide: YAGFXPLW
modifications: not fully specified; Dmt at 1 (written Y); D-Ala at 2; Nle at 5 (written X); C-terminal dimethoxybenzyl amide (NHBn-2,4-(OMe)2 in Table 39, NH-3,5-Bn(OMe)2 in Table 31)
notes: also called TY054
Turning to B1, the results for the Ki with human δ opioid receptor [2] and with human NK1 receptor were 0.15 nM and 0.95 nM, respectively.

B2: DmtDAlaGlyPheNleProLeuTrpNMeBn(CF3)2 (peptide)
peptide: YAGFXPLW
modifications: Dmt at 1 (written Y); D-Ala at 2; Nle at 5 (written X); C-terminal NMe-3,5-Bzl(CF3)2 amide
notes: also called TY052
For B2, the Ki with human δ opioid receptor [2] stood at 0.46 nM; with human NK1 receptor, 0.21 nM.

Turning to Y[dA]GW-{OBzl(3,5-(CF3)2)} [Tyr-D-Ala-Gly-Trp-O-3′,5′(CF3)2-Bzl (NP44)], the “GPI µ-agonist IC50” value in [1] turned out to be 844 nM.

Take Y[dA]GFW-{OBzl(3,5-(CF3)2)} [Tyr-D-Ala-Gly-Phe-Trp-O-3′,5′(CF3)2-Bzl (NP36)]: the “GPI µ-agonist IC50” value in [1] is 523 nM.

Regarding Y[dA]GFPW-{O‑Bzl(CF3)2} [Tyr-DAla-Gly-Phe-Pro-Trp-O-Bzl(CF3)2 (NP39)], in assay [3], the “GPI/LMMP µ-agonist IC50” value amounted to 259 nM.

With Y[dA]GFLW-{O‑Bzl(CF3)2} [Tyr-DAla-Gly-Phe-Leu-Trp-O-Bzl(CF3)2 (NP37)], in assay [3], the “GPI/LMMP µ-agonist IC50” value amounted to 45.4 nM.

As for H-Y[dA]GF[dF]PLW-{OBzl(3,5-(CF3)2)} (also: TFA salt, TFA salt; also called TY007) [H-Tyr-D-Ala-Gly-Phe-D-Phe-Pro-Leu-Trp-O-3,5-Bzl(CF3)2], in the assay with human δ opioid receptor [4], the “[35S]GTP-γ-S binding EC50” value turned out to be 16.8 nM, the “[35S]GTP-γ-S binding Emax” value came to 26% and the “[35S]GTP-γ-S binding LogEC50” value is -7.78. For the same molecule, in the assay with rat µ opioid receptor [5], the “[35S]GTP-γ-S binding EC50” value turned out to be 345 nM, the “[35S]GTP-γ-S binding Emax” value worked out at 22% and the “[35S]GTP-γ-S binding LogEC50” value is -6.46. Further, the “GPI (µ) opioid agonist, % at 1 µM” value in [6] is 9 % at 1 µM. Further, in the assay with guinea pig NK1 receptor, the “Substance P GPI agonist (A50), contraction relative to KCl” value amounted to 0 % at 1 µM and the “Substance P GPI antagonist Ke” value was determined as 69.6 nM. Also, the “Ki(µ)/Ki(δ)” value in the assay with human δ opioid receptor [7] worked out at 4.1. Further, in the assay with rat µ opioid receptor [8], the Ki came out at 381 nM and the LogIC50 was -6.09. Further, in the assay with human δ opioid receptor [9], the affinity corresponds to a Ki of 93 nM and the LogIC50 is -6.7. Besides, in the assay with rat NK1 receptor, the IC50 was 66.7 nM and the LogIC50 is -7.22.

The values above are taken from patent US8026218 (UNIVERSITY OF ARIZONA, dated 2011).
